Measurements taken from patent publication US20210079056A1 (Bayer, published 2021).
Numbering of substitutions follows the chain as printed.

T1: rat ANP receptor (NPR-A) (rat, UniProt P18910 29-1057)
T1 sequence (looked up): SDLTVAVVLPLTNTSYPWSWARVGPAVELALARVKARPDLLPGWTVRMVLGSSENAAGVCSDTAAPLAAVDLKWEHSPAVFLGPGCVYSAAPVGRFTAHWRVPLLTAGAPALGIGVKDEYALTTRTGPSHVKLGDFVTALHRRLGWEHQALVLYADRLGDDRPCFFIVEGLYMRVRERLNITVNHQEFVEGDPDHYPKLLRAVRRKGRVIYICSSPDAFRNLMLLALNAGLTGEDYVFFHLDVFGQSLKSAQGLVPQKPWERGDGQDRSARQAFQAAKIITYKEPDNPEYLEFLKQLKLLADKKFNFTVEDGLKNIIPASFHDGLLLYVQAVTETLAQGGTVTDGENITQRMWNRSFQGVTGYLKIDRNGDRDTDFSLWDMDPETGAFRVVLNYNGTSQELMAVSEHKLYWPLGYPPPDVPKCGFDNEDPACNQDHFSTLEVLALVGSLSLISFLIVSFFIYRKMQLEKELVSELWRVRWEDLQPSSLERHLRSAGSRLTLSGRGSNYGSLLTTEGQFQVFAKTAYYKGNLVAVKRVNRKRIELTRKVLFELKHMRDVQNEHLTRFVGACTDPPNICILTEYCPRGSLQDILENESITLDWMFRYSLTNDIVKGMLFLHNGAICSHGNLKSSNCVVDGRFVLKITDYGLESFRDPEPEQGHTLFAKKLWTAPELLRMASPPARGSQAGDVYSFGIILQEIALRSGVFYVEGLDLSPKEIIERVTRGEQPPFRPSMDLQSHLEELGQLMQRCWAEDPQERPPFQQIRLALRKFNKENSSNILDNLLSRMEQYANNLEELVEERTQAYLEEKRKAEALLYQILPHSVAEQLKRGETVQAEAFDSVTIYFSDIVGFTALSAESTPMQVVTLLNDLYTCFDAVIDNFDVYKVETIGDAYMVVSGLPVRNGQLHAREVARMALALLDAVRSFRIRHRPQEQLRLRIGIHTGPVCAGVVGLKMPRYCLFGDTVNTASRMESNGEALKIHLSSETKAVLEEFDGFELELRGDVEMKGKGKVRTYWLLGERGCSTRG

T2: rat CNP receptor (NPR-B) (rat, UniProt P16067 17-1047)
T2 sequence (looked up): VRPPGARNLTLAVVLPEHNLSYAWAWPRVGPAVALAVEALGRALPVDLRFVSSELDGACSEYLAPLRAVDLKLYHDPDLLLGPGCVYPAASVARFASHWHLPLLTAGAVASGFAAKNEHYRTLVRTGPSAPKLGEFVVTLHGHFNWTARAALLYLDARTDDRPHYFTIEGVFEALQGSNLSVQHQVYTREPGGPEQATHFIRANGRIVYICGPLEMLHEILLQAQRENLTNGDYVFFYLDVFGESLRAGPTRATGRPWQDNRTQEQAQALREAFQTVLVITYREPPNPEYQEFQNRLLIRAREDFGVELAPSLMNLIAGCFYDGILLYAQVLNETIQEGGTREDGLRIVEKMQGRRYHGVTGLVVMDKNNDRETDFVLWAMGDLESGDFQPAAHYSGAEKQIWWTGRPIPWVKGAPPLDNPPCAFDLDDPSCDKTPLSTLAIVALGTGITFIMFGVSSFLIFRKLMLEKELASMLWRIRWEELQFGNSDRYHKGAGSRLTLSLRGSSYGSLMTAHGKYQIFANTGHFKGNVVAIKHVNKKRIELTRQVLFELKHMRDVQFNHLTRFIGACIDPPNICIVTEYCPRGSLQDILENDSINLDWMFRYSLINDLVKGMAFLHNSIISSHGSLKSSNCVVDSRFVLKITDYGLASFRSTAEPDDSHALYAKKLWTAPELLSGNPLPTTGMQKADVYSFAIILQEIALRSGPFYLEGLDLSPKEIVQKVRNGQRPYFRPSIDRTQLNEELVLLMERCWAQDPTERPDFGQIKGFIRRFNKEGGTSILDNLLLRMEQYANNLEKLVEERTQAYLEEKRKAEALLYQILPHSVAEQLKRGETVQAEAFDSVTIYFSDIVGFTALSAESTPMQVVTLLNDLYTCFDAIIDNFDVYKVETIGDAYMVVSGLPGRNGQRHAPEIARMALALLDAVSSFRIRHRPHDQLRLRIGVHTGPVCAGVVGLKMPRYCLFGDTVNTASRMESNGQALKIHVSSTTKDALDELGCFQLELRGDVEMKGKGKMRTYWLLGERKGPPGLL

T3: human NPRA (human, UniProt P16066 33-1061)
T3 sequence (looked up): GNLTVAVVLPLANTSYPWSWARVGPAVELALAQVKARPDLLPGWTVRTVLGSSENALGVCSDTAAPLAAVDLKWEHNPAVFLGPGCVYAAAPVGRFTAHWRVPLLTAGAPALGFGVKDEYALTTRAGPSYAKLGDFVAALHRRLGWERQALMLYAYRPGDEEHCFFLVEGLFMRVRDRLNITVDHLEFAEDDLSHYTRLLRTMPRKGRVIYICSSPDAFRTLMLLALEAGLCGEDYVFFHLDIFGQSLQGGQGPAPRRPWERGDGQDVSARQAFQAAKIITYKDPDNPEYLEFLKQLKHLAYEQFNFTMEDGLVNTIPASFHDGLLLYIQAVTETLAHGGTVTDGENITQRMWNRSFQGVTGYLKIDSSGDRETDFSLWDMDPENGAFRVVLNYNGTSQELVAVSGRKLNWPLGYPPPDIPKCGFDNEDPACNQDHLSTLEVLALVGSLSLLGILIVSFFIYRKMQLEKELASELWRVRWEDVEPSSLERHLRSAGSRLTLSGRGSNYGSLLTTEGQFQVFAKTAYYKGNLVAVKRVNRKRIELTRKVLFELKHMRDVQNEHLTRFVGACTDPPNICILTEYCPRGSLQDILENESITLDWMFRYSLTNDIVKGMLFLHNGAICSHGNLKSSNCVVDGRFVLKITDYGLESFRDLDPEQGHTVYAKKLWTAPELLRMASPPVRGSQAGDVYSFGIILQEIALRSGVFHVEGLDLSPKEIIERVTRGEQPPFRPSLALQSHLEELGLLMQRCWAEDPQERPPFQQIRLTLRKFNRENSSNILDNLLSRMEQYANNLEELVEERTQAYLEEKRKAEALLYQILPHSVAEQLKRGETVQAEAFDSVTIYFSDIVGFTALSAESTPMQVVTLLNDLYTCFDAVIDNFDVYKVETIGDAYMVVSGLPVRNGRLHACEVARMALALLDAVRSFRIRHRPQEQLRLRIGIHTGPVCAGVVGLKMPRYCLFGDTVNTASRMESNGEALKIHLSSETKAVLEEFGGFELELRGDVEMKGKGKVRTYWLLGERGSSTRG

B1: TPP-11156 (antibody, human IgG1, lambda)
heavy: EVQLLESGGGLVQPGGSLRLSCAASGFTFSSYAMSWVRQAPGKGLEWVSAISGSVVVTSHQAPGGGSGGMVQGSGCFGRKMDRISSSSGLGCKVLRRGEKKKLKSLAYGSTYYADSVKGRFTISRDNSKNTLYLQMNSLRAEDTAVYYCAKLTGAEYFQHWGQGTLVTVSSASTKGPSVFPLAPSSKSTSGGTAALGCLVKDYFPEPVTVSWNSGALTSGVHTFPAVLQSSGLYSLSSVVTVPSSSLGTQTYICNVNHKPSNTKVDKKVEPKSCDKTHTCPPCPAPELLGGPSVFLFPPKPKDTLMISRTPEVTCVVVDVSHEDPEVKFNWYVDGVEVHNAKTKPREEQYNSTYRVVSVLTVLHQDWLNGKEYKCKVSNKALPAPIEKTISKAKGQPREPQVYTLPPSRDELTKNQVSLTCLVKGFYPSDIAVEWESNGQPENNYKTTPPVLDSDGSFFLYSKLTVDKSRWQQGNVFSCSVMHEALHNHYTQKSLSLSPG
light: QSVLTQPPSVSGAPGQRVTISCTGSSSNIGAGYDVHWYQQLPGTAPKLLIYGNSNRPSGVPDRFSGSKSGTSASLAITGLQAEDEADYYCQSYDSSLSGVVFGGGTKLTVLGQPKAAPSVTLFPPSSEELQANKATLVCLISDFYPGAVTVAWKADSSPVKAGVETTTPSKQSNNKYAASSYLSLTPEQWKSHRSYSCQVTHEGSTVEKTVAPTECS
B2: TPP-9465 (antibody)
heavy: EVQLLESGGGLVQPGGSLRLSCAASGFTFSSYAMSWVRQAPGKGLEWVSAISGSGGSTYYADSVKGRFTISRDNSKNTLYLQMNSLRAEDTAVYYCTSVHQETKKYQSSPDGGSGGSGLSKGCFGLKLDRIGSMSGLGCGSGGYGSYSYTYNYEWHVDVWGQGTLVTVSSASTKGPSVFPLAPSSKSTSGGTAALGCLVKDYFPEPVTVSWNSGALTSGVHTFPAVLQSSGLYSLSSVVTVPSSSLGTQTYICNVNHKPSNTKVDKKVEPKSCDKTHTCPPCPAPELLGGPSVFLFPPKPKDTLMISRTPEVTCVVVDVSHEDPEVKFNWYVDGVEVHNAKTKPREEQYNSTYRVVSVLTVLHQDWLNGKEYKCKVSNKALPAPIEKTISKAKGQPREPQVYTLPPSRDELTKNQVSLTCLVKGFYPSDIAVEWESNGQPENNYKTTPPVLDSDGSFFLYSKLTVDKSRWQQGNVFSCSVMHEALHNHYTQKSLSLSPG
light: B1 light
B3: TPP-12377 (antibody)
heavy: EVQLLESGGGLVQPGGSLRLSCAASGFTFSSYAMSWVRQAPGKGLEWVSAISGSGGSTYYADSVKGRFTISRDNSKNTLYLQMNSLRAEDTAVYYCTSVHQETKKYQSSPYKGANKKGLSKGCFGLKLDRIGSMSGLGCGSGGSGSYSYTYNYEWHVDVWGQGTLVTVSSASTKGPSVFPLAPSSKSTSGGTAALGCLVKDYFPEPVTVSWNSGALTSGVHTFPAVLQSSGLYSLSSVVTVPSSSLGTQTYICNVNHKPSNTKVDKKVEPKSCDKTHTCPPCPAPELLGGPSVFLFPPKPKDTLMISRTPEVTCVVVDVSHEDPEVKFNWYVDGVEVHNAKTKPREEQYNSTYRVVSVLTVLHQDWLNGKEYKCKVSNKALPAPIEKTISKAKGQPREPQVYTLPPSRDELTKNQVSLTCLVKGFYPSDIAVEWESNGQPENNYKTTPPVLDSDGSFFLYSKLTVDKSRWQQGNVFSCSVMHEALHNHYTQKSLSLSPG
light: B1 light
B4: TPP-12897 (antibody)
heavy: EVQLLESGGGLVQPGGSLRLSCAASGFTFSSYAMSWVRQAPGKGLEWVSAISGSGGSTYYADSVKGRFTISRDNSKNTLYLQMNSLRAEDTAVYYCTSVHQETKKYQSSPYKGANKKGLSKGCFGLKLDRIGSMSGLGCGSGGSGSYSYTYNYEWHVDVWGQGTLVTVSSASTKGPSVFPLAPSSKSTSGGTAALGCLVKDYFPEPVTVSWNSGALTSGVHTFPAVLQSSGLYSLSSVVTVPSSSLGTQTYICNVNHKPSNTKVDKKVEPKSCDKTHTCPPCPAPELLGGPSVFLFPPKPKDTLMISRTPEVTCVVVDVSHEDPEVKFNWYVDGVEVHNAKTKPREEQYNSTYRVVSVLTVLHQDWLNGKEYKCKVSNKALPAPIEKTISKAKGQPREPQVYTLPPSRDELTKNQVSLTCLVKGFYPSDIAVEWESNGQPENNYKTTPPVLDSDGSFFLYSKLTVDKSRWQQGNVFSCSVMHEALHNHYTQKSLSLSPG
light: B1 light with S98D
B5: TPP-5661 (antibody)
heavy: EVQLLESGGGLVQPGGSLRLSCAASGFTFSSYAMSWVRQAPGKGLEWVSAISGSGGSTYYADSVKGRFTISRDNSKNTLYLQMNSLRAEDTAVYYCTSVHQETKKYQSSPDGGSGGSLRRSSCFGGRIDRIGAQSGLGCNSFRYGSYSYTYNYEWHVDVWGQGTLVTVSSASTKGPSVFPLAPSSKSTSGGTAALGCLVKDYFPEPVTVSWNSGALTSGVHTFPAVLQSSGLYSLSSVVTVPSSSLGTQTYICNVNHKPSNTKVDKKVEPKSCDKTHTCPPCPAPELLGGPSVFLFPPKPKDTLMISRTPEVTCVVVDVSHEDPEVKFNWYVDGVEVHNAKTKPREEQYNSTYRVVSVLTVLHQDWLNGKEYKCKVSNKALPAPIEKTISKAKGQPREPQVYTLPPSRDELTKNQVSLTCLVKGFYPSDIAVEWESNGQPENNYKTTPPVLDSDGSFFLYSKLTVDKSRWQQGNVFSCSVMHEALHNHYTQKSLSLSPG
light: B1 light
B6: TPP-10992 (antibody, human IgG4 S228P, lambda)
heavy: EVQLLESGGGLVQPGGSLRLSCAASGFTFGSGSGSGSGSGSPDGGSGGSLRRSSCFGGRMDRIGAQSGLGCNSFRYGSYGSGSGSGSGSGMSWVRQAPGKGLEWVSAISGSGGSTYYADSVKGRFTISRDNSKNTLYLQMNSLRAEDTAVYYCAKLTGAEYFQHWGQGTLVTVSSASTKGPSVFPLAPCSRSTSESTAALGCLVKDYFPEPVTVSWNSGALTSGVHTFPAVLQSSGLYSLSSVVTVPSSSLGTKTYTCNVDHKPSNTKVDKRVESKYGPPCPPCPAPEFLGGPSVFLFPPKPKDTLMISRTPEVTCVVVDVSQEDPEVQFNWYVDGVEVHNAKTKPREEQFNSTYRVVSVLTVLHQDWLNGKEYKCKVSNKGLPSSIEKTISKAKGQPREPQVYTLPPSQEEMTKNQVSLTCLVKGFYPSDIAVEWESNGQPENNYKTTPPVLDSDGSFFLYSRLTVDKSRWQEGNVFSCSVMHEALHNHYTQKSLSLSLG
light: B1 light
B7: TPP-9902 (antibody)
heavy: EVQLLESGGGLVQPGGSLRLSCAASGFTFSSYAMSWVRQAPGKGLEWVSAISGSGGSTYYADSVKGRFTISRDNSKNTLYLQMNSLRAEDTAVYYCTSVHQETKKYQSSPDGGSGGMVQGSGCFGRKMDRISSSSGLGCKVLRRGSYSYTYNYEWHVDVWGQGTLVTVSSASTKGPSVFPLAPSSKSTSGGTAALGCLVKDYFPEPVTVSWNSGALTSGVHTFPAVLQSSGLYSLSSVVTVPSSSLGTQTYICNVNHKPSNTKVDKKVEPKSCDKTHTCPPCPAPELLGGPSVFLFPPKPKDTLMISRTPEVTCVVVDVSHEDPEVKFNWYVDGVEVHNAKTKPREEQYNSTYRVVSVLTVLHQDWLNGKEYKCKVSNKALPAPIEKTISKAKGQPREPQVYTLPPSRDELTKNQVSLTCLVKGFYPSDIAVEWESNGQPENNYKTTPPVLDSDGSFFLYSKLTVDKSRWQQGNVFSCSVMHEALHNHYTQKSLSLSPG
light: B1 light

Experiments:
Assay in all cases: cell-based or functional assay
rat ANP receptor (NPR-A) = target: T1, rat ANP receptor (NPR-A)
rat CNP receptor (NPR-B) = target: T2, rat CNP receptor (NPR-B)
human NPRA = target: T3, human NPRA

Row | Binder | EC50, fluorescence of cGMP reporter cells (rat ANP receptor (NPR-A)) | EC50, luminescence of cGMP reporter cells (rat CNP receptor (NPR-B)) | also measured
1 | B1 | 1200 nM |  | 
2 | B2 |  | 5.2 nM | 
3 | B3 |  | 4.1 nM | 
4 | B4 |  | 10 nM | 
5 | B5 | 17 nM |  | log EC50 ics, cGMP assay, stable hNPRA-CHO k1 cells (human NPRA): -8.8 log M; log EC50 pcs, cGMP assay, stable hNPRA-CHO k1 cells, average (human NPRA): -9.2 log M; log EC50 pcs, cGMP assay, transient hNPRA-HEK293 cells, average (human NPRA): -9 log M
6 | B6 | 180 nM |  | 
7 | B7 | 2300 nM |  | 
